# B1: Muscarinic acetylcholine receptor M2 (Mus musculus), Q9ERZ4 (protein)
# chain: MNNSTNSSNNGLAITSPYKTFEVVFIVLVAGSLSLVTIIGNILVMVSIKVNRHLQTVNNYFLFSLACADLIIGVFSMNLYTLYTVIGYWPLGPVVCDLWLALDYVVSNASVMNLLIISFDRYFCVTKPLTYPVKRTTKMAGMMIAAAWVLSFILWAPAILFWQFIVGVRTVEDGECYIQFFSNAAVTFGTAIAAFYLPVIIMTVLYWHISRASKSRIKKEKKEPVANQDPVSPSLVQGRIVKPNNNNMPGGDGGLEHNKIQNGKAPRDGGTENCVQGEEKESSNDSTSVSAVASNMRDDEITQDENTVSTSLGHSKDDNSRQTCIKIVTKTQKGDACTPTSTTVELVGSSGQNGDEKQNIVARKIVKMTKQPAKKKPPPSREKKVTRTILAILLAFIITWAPYNVMVLINTFCAPCIPNTVWTIGYWLCYINSTINPACYALCNATFKKTFKHLLMCHYKNIGATR
# Key:
# [1] = substrate: COC(=O)C1CN=CNC1; conditions: Mus musculus; A9L
# [2] = substrate: C[N+](C)(C)CCOC(N)=O; conditions: Mus musculus; A9L
protein,measurement,setting,value
B1,Km,[1],0.014 µM
same,Km,[2],0.046 µM
